Experimental data reported in publication PMC4497647.

Columns and labels:
[1] = target: HIV-1 envelope (Env) of strain JR-CSF (subtype B) (HIV-1 subtype B) (UniProt P20871)
[2] = target: HIV-1 envelope (Env) of strain REJO (subtype B) (HIV-1 subtype B)
[3] = target: HIV-1 envelope (Env) of strain BG505 (subtype A) (HIV-1 subtype A) (UniProt Q2N0S6)
[4] = target: HIV-1 envelope (Env) of strain ZM53 (subtype C) (HIV-1 subtype C)
[5] = target: HIV-1 envelope (Env) of strain ZM214 (subtype C) (HIV-1 subtype C)
[6] = target: HIV-1 envelope (Env) of strain JR-FL (subtype B) (HIV-1 subtype B) (UniProt Q75760)
[7] = target: HIV-1 envelope (Env) of strain SF162 (subtype B) (HIV-1 subtype B) (UniProt P19550)
[8] = target: HIV-1 envelope (Env) of strain PVO.4 (subtype B) (HIV-1 subtype B)
[9] = target: HIV-1 envelope (Env) of strain DH123 (subtype B) (HIV-1 subtype B)
[10] = target: HIV-1 envelope (Env) of strain THRO (subtype B) (HIV-1 subtype B)
[11] = target: HIV-1 envelope (Env) of strain ZM109 (subtype C) (HIV-1 subtype C)

Q: How did the reduction in inhibitory activity during cell-cell transmission (293-T donor to A3.01-CCR5) against free virus infection of A3.01-CCR5 (fold change IC50) [1] turn out when fusion inhibitor T-20 (peptide) was run?
A: < 10 fold

Q: What about the reduction in inhibitory activity during cell-cell transmission (293-T donor to A3.01-CCR5) against free virus infection of A3.01-CCR5 (fold change IC50) [2] of the same substance?
A: < 10 fold

Q: What about the reduction in inhibitory activity during cell-cell transmission (293-T donor to A3.01-CCR5) against free virus infection of A3.01-CCR5 (fold change IC50) [3] of the same substance?
A: < 10 fold

Q: What about the reduction in inhibitory activity during cell-cell transmission (293-T donor to A3.01-CCR5) against free virus infection of A3.01-CCR5 (fold change IC50) [4] of the same substance?
A: < 10 fold

Q: And the median fold reduction for T-20 in cell-cell transmission (293-T donor to A3.01-CCR5) against free virus infection [5]?
A: 5.3 fold

Q: What about the reduction in inhibitory activity during cell-cell transmission (293-T donor to A3.01-CCR5) against free virus infection of A3.01-CCR5 (fold change IC50) [6] of the same substance?
A: < 10 fold

Q: And the reduction in inhibitory activity during cell-cell transmission (293-T donor to A3.01-CCR5) against free virus infection of A3.01-CCR5 (fold change IC50) [7]?
A: < 10 fold

Q: What about the reduction in inhibitory activity during cell-cell transmission (293-T donor to A3.01-CCR5) against free virus infection of A3.01-CCR5 (fold change IC50) [8] of the same substance?
A: < 10 fold

Q: And the reduction in inhibitory activity during cell-cell transmission (293-T donor to A3.01-CCR5) against free virus infection of A3.01-CCR5 (fold change IC50) [9]?
A: < 10 fold

Q: What about the median fold reduction for T-20 in cell-cell transmission (293-T donor to A3.01-CCR5) against free virus infection [10] of the same substance?
A: 1.6 fold

Q: And the reduction in inhibitory activity during cell-cell transmission (293-T donor to A3.01-CCR5) against free virus infection of A3.01-CCR5 (fold change IC50) [11]?
A: < 10 fold
